# Test results reported in the nanobody polyreactivity screen of Harvey et al. (2022).
# Assay: yeast display, Sf9 membrane polyspecificity reagent, FACS + sequencing; frameworks hold sequencing errors
# Procedure, shortened: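 Genes from sorted yeast were amplified by colony PCR, read by MiSeq 2 × 250 sequencing and filtered on CDR length. These cells carried a synthetic nanobody library in Saccharomyces cerevisiae BJ5465 and were sorted by FACS into low and high (top ~1%) gates on anti-HA and streptavidin fluorescence. Polyreactivity is labelled according to the gate of origin.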
row,Sequence,polyreactivity (PSR sort gate)
1,QVQLVESGGGLVQAGGSLRLSCAASGRISGRYAMGWYRQAPGKERELVAAITGRGGGTFYADSVKGRFTISRDNAKNTVYLQMNSLKPEDTAVYYCNTDYGSSYNYCGQGTQVTVSS,high polyreactivity
2,QVQLVESGGGLVQAGGSLRLSCAASGFTFVRYAMGWYRQAPGKERELVAAISSGGSTNYADSVKGRFTISRDNAKNTVYLQMNSLKPEDTAVYYCNAVSRKVYPGPMDYWGQGTQVTVSS,high polyreactivity
3,QVQLVESGGGLVQAGGSLRLSCAASGRIFPRNTMGWYRQAPGKQRELVAAISTRGGSTYYADSVKGRFTISRDNAKNTVYLQMNSLKPEDTAVYYCAAGRRFPAIYSTGNYWGQGTQVTVSS,high polyreactivity
4,QVQLVESGGGLVQAGGRLRLSCAASGFIFSYYAMAWYIQAPGKERELVAAISSAGSTYYADSVKGRFTISRDNAKNTVYLQMNSLKPEDTAVYYCAAAIWYIKLYFVRRTEHGYWGQGTQVTVSS,low polyreactivity
5,QVQLVESGGGLVQAGGSLRLSCAASGSIFGRNTMGWYRQAPGKERELVAAISSSGGSTRYADSVKGRFTISRDNAKITVYLQMNSLKQEDTAVYYCNDRPRTIYVNRKYDYWGQCTQVTVSS,high polyreactivity
6,QVQLVDSGGGLVQAGGSLRLSCAASGSTLNSYVIGWYRQAPGKERELVATIRSGSSTNYADSVKGRFTISRDNAKNTVYLQMNSLKPEDTAVYYCAADAYSLCYDSWGQGTQVTVSS,low polyreactivity
7,QVQLVESGGALVQAGGSLRLSCAAYGRIFLVYAMGWSRQAPGKEREMVAAISWSTGSTYYADSVKGRFTISRDNAKNTVYLQMNSLKPEDTAVYYCAAEPELDEYEHDYWGQGTQVTVSS,low polyreactivity
8,QVQLVASGGGLVQAGGSLRLSCAASGRTSWYYAMGWYRHAPGKERELVAAITASGGSTYADSVKGRFTISRDNAKNTVYLQMNSLKPEDTAVYYCAAERPYSRVGYYYWGQGTQVTVSS,high polyreactivity
9,QVQLVESGGGLVHAGGSLRLSCAASGFTFRGYAMGWYRPSPGKEREFVAAISRSGGSTNYADSVKGRFTISRDNAKNTVYLQMNSLKPEDTAVYYCAAGWNPYDYWGQGTQVTVSS,high polyreactivity
10,QVQLVESGGGLVQAGGSLRLSCAASGRIFGSYAMGWYRQAHGKERELVAAIRWSGGSTYYADSVKGRFTISRDNAKNTVYLQMNSLKPEDTAVYYCAKTRTGYCFSYGYWGQGTQVTVSS,high polyreactivity
11,QVQLVESGGGLVQAGGSLRLSCAASGFFFDEYAMGWYRLAPGKERELVAAIDVGGSTYYADSVKGRFTISRDNAKNTVYLQMNSLKPEDTAVYYCARDAFSVSDFSYASIEYDYWGQGTQVTVSS,low polyreactivity
12,QVQLVESGGGLVQAGGSLRLSCAASGSIFKSYAMGWYRQAPGKERELVAAITWRSGRTYYADSVKGRFTISRDNAKNTVYLQMTSLKPEDTAVYYCAADDTSYYIYSYDYWGQGTQVTVSS,low polyreactivity
13,QVQLVESGGGLVQAGGSLRLSCAASGRTFRGNDMGWYRQAPGKERELVATITRNGGSTRYADSVKGRFTISRDNAKNTVYLQMNSLKPEDTAVYYCNARSRYFGYDYWGQGTQVTVSS,high polyreactivity
14,QVQLVESGGGLVQAGGSLRLSCAASGYIFYHYAMGWYRQAPGKERELVATISLGGGRTYYADSVKGRFTISRDTAKNTVYLQMNSLKPEDTAVYYCAADDGPGFDYWGQGTQVTVSS,high polyreactivity
15,QVQLVESGGGLVQAGGSLRLSCAASGSMFIWNAMGWYRQAPGKARELVAAISFTGTSTYYADSVKGRCTSSRDNAKNTVYLQMNSLKPEDTAVYYCNTDYRGSQYDYWVQGTQVTVSS,low polyreactivity
16,QVQLVESGGGIVQAGGSLRLSCAASGRIFAYYAMGWYRQAPGKERELVAAISSSGGGTYYAYSVKGRFTISRDNAKNTVYLQMTSLKPEDTSVYYCAKRVPRKSSVSHPYDYWGQGTQVTVSS,high polyreactivity
17,QVQLVESGGGLDQAGGSLRLICAASGFIFVWYAMGWYRPAPGKERELVAAISRRGGGTYYADSVKGRFTISRDNAKNTVYLQMNSLKPEDTAVYYCAAGSYYRYGYDFNYWGQGTQVTVSS,high polyreactivity
18,QVQLVESGGGLVPAGGSLRLSCAASGYIFDYNAMGWYRQAPGKERELVAAITFRDGSTYADSVKGRFTISRDNAKNTVYLQMNSLKPEDTAVYYCNRRSQVHSHSKHDYWGQGTQVTVSS,low polyreactivity
19,QVQLVESGGGLVQAGGSLRLSCAASGRIFYTKTMGWYRQAPGNEWELVAAIRSGTRTDYADSVKGRFTISRDNAKKTVYLQMNSLKPYDTAVSYCNKAAGVTGRYYYWGQGTQVTVSS,low polyreactivity
20,QVQLVESGGGLVQAGGSLRLSCAASGRTFRYYAMGWYRQAPGKERELVAAITRGGRTNYADSVKGRFTISRDNAKNTVYLQMNSLKPEDTAVYYCAAVLYTPNKYASYYWGQGTQVTVSS,high polyreactivity
21,QVQLVESGGGLVQAGGSLRLSCAASGITFVYYVMGWYRQAPGKERELVAAINAGGGSTYYADSVKGRFTISRDNAKNTVYLQMNSLKPEDTAVYYCNARVRVRLGRNWSSYYYWGQGTQVTVSS,high polyreactivity
22,QVQLVESGGGLVQAGASLRLSCAASGRNFHTYGMGWYRQAPGKESELVAAITWTGGSTYYADSVKGRFTISRDNAKNTVYLQMNSLKPEDTAVYYCAADYPRDIIGSMDYWGQGTQVSVSS,low polyreactivity

row,Sequence,polyreactivity (PSR sort gate)
1,QVQLVESGGGLVQAGGSLRLSCAASGSIFPQYAMGWYRQAPGKERELVAGISGSGGGTYYADSVKGRFTISRDNAKNTVYLQMNSLKPEDTAVYDCYDYWGQGTQVTVSS,low polyreactivity
2,QVQLVESGGGLVQAGGSLRLTCAASGSIFYYNAKGWYRQAPAKERELVATITQTGGSTYYADSVKARFTISRDNAKNTVYLQMNSLKPEDTAVYYCASDYFPYEYDYWGQGTQVTVSS,low polyreactivity
3,QVQLVESGGGLVQAGGSLRLTCAASGRIFAYYAMGWSRQAPGKERELVAAISSGGTTNYADSVKGRFTISRDNAKNTVYLQLTSLKPEDTAVYYCNADGWRRSRQYYYWGQGTQVTVSS,low polyreactivity
4,QVQLVESGGGLVQAGGSLRLSCAASGRTFYKNTMGWYRQAPGKERELVAGISQRGGRTYYADSVKGRFTISRDNAKNTVYLQMNSLKPEDTAVYYCAADRYSYGSNGYPRFEYYYWGQGTQVTVSS,high polyreactivity
5,QVQLVESGGGLVQAGGSLRLTCAASGRTLRLYPMGWYRQAPGKERELVAAISRSGSSTYADSVKGRFTISRDNAKNTVYLQMYSLKPEDTAVYYCNAYQPRYGYWGQGTQVTVSS,high polyreactivity
6,QVQLVESGGGLVQAGGSLRLSSAASGIIFKSYAMGWYRPAPGKERELVSAISGGGDTYYAYSVKGRFTISRDNAKNTVNLQMNSLKPEDTAVYYCNTDGSQGTIIAIFVKYDYWGQGTQVTVSS,low polyreactivity
7,QVQLVESGGGLVQAGGSLRLICAASGLTFGDYTMGWYRQAPGKERELVAAISTSGGSTYYADSVKGRFTISRDNAKKTVYLLMNSLKPEDTAVYYCNARRTHTRSHYYYWGQGTQVTVSS,high polyreactivity
8,QVQLVESGGGLVQAGGSLRLSGAASGFIFIGYTMGWYRQAPGKAWELVATISLGDDSTYYADSVKGRFTISRDNAKNTVYLQMNSLKPEDTAVYYCAGDQKDGTTSAYDYCGQGTQVTVSS,low polyreactivity
9,QVQLVESGGGLVQAGGSLRLSCAASGSIFRFNAMGWYRQAPGKEREFVAAISSGGRTYYADSVKGRFTISRDNAKNTVYGQRNSLKPDDPAVYYCAALWHRRGSWFRQTGSGYDYWGQGTQVTVSS,high polyreactivity
10,QVQLVESGGGLVQAGGSLRLSCAASGRIFADYAMGWYRQAPGKERELVATITSGDRTYYADSVKGRFTTSRDNAKNTVYLQMNSLKPEDTAVYYCAAYKPWYVGLYPWYDYWGQGTQVTVSS,low polyreactivity
11,QVQLVESGGGLVQAGGSLRLSCAASGRIFGPYAMGWYRQAPGKERELVATITWRTGSTYYADSVKGRFTISRDNAKNTVYLQMNSLKPEDTAVYYCAAQSRQAYITYGYWGQGTQVTVSS,high polyreactivity
12,QVQLVESGGGLVQAGGSLRLSCAASGRTFRRYAMGWYRQAPGKERELVAGISRSGVSSYYADSVKGRFTISRDNAKNTVYLQMNSLKPEDTAVYYCATRYVPTLRSSGDYWGQGTQVTVSS,high polyreactivity
13,QVQLVESGGGLVQAGGSLRLSCAASGRIFYRYTMGWYRQAPGKERELVAVIRSGGRTYYADSVKGRFSISRDNAKNTLSLQMNSLKPEDTSVYYCATLVRVLTLRSDLNLYGYWGQGTQVTVSS,high polyreactivity
14,QVQLVESGGGLVQAGGSLRLSCAASGYIFKVNSMGWYRPAPGKERELDADISSNSGSTRYADSVKARFTISRDNAKNTVYLQMNSLKQDDTAVYYCAADGRYWVKPGSPWDRSRYDYWGQGTQVTVSS,low polyreactivity
15,QVQLVESGGGLVQAGGSLRLSCAASGFTFDRYAMGWYRQAPGKERELVAAISRSGASTYYADSVKGRFTISRDNAKNTVYLQMNSLKPEDTAVDDCAAKQRTKGDYWGQGTQVTVSS,high polyreactivity
16,QVQLVESGGGLVQAGGSLRLSCAASGYIIYVYAMGWYRQAPGKERELVADISLNGGSTYYADSVKGRFTISRDNAKNTVYLEMNSLKPEDTAVYYCAADGWLYRTYWYYYWGQGTQVTVSS,high polyreactivity
17,QVQLVESGGRLVQAGGSLRLSCAASGSTFRKYAMGWYIQAPGKERELVASISRGGTTYYADSVKGRFTISRDNAKNTVYLQMNSLKPEDTAVYYCNKASYRWYWGYLDYYYWGQGTQVTVSS,high polyreactivity
18,QVQLVESGGGLVQAGGSLRLSCAASGSTFSTYAMGWYRQAPGTERELVAASRWSGGSTYYADSVKGRFTISRDNAKNTVYLQMNSLKPEDTAVYYCAKGIRRWYGGSDYWGQGTQVTVSS,low polyreactivity
19,QVQLVESGGGLVQAGGSLRLSCAASGRTFGRNTMGWYRQAPGKERELVAGISRSAGRTYYADSVKGRFTISRDNAKNTVYLQMNSLKPEDTAVYYCAARYQGNYRTDKYDYWGQGTQVTVSS,high polyreactivity
20,QVQLVESGGGLVQAGGSLRLSCAASGGIFIFYAMGWYRQAPGKERELVAAISNVSSTNYADSVKGRFTISRDNAKNTVYLQMNSLKPEDTAVYYCNAVGVPSEYYSWGQGTQVTVSS,low polyreactivity
21,QVQLVESGGGLVQAGGSLRLSCAASGGTFWYYDMGWYRQAPGKERELVAAISSGGNTYYADSVKGRFTISRDNAKNTVYLQMNSLKREDNAVYYWAALPKYGSYYYYPPFDYDYWGHGTQVTVSS,low polyreactivity
